From patent US20130136743A1 (LABORATOIRE FRANCAIS DU FRACTIONNEMENT ET DES …, published 2013)

Experiments:
AMHR-II human receptor = molecular target: T1, AMHR-II human receptor (human, UniProt Q16671 18-573, limits assumed); assay: method not stated; determined on the AMHR-II human receptor; determined on the AMHR-II human receptor (table footnote), apart from the tabulated 2.35 × 10^-7M
T1 sequence (looked up): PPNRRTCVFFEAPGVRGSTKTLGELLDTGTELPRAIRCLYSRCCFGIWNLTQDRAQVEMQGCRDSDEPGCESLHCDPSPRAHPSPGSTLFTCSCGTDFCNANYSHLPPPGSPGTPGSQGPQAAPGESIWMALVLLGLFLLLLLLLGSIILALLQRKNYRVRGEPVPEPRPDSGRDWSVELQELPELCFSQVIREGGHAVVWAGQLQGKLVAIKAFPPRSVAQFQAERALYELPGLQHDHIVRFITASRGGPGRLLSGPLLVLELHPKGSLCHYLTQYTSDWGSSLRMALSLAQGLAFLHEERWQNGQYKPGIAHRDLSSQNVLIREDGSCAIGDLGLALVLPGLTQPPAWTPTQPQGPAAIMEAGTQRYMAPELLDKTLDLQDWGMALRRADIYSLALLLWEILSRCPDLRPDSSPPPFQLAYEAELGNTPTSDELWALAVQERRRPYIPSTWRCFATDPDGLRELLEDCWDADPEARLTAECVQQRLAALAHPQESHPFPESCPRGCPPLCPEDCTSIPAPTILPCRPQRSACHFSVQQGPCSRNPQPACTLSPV

[1] = molecular target: T2, AMHR-II/Fc fusion protein (human, UniProt Q16671 18-149, limits assumed); assay: SPR, BIAcore X100; AMHR-II/Fc immobilised on CM5 chip, antibody injected; 25 C
T2 construct: also called AMHR-II recombinant receptor expressed in the form of fusion protein with a region Fc; recombinant target; not shown: Fc region
Protocol: The affinity of the antibodies for their antigen, AMHR-II, is determined by the SPR (Surface Plasmon Resonance) technique on BIACore X100 (BIACore, GE Healthcare). The AMHR-II recombinant receptor, expressed in the form of fusion protein with a region Fc, is immobilized by covalent coupling between its amine functions and the carboxyl groups of dextran activated in succinimide esters, present on the surface of the type CM5 sensor chip. The COOH groups of the sensor chip are activated for 7 minutes with EDC/NHS mixture (0.1 M of N-hydroxysuccinimide and 0.1 M of 3-(N,N-dimethylamino)propyl-N-ethylcarbodiimide) at a flow of 10 μl/min then the AMHR-II/Fc fusion protein, diluted to 5 μg/ml in 10 mM sodium acetate buffer, pH 4.0, is injected at […] on track 2 of the sensor chip so as to reach 300 RU. The ester groups that have not reacted with the amines of the fusion protein are deactivated by injection of a solution of ethanolamine-HCl 1M, pH 8.5 for 7 min at a flow of 10 μl:min. Track 1, serving as negative control, was activated and deactivated like track 2.
All the measurements are carried out at 25° C. The antibodies to be analysed are diluted in HBS-EP running buffer (BIACore, GE Healthcare) at concentrations from 6.25 to 3333 nM and injected on the sensor chip for 2 min at a flow of 30 μl/min. The dissociation step is monitored for 10 min and then the surface is regenerated by injection of 10 mM glycine buffer, pH 1.5 for 30 s at 10 μl/min.
The sensorgrams obtained are analysed using the 1:2 kinetic model of the BIAevaluation 3.1 software.

[2] = molecular target: T3, Epitope peptide GGGGNLTQDRAQVEMQGSR; assay: method not stated; Example 2, heading names cov434-AMHR-II cells and the epitope peptide
T3 peptide: GGGGNLTQDRAQVEMQGSR

[3] = molecular target: T2, AMHR-II/Fc fusion protein; assay: direct phage ELISA, ratio of specific binding; 3.00E+09 phages per well as printed
[4] = molecular target: T2, AMHR-II/Fc fusion protein; assay: direct phage ELISA, target coated at 500 ng/well; 3.00E+10 phages per well as printed (second row)
[5] = molecular target: T2, AMHR-II/Fc fusion protein; assay: direct phage ELISA, target coated at 500 ng/well; 3.00E+09 phages per well as printed (third row)
[6] = molecular target: T2, AMHR-II/Fc fusion protein; assay: direct phage ELISA, ratio of specific binding; 3.00E+09 phages per well as printed (second row)
[7] = molecular target: T2, AMHR-II/Fc fusion protein; assay: direct phage ELISA, ratio of specific binding; 3.00E+10 phages per well as printed (second row)
[8] = molecular target: T2, AMHR-II/Fc fusion protein; assay: direct phage ELISA, ratio of specific binding; 3.00E+10 phages per well as printed
[9] = molecular target: T2, AMHR-II/Fc fusion protein; assay: direct phage ELISA, target coated at 500 ng/well; 3.00E+09 phages per well as printed
[10] = molecular target: T2, AMHR-II/Fc fusion protein; assay: direct phage ELISA, target coated at 500 ng/well; 3.00E+10 phages per well as printed
[11] = molecular target: T2, AMHR-II/Fc fusion protein; assay: direct phage ELISA, ratio of specific binding; 3.00E+09 phages per well as printed (third row)
[12] = molecular target: T2, AMHR-II/Fc fusion protein; assay: direct phage ELISA, target coated at 500 ng/well; 3.00E+09 phages per well as printed (second row)

B1: chimeric 12G4 monoclonal antibody (antibody, V domains shown)
VH: QVQLQQSGPELVKPGASVRMSCKASGYTFTSYHIHWVKQRPGQGLEWIGWIYPGDDSTKYNEKFKGKTTLTADKSSSTAYMLLSSLTSEDSAIYFCTRGDRFAYWGQGTLVTVSA
VL: QIVLTQSPAIMSASLGEGITLTCSASSSVRYIHWYQQKSGTSPKLLIYSTSNLASGVPSRFSGSGSGTFHSLTISSVEAEDAADYYCLQWSSYPWTFGGGTKLEIKR
notes: Variable regions without leader joined to the human constant regions; also called 12G4-Chimeric; unmutated chimeric 12G4 antibody
AMHR-II human receptor
  Kd: ~10 nM
[1]
  Kd: 212 nM
  koff: 0.00074 s⁻¹
  kon: 3500 M⁻¹ s⁻¹
[2]
  Kd: 235 nM
  koff: 0.00153 s⁻¹
  kon: 6490 M⁻¹ s⁻¹

B2: mVH-VL, murine antibody mLFB112 expressed as scFv on phage (scFv, part only; not given: scFv linker, part only)
scFv, part: QVQLQQSGPELVKPGASVRMSCKASGYTFTSYHIHWVKQRPGQGLEWIGWIYPGDDSTKYNEKFKGKTTLTADKSSSTAYMLLSSLTSEDSAIYFCTRGDRFAYWGQGTLVTVSAQIVLTQSPAIMSASLGEGITLTCSASSSVRYIHWYQQKSGTSPKLLIYSTSNLASGVPSRFSGSGSGTFHSLTISSVEAEDAADYYCLQWSSYPWTFGGGTKLEIK
[3]
  Ratio mVH-VL/huVH-VL: 4.7
[4]
  OD 450 nm, +covering: 2.19 OD
  OD 450 nm, Diff (specific binding): 2.11 OD
[5]
  OD 450 nm, +covering: 0.495 OD
  OD 450 nm, Diff (specific binding): 0.446 OD
[6]
  Ratio mVH-VL/huVH-VL: 5.2
[7]
  Ratio mVH-VL/huVH-VL: 3.6
[8]
  Ratio mVH-VL/huVH-VL: 2.4
[9]
  OD 450 nm, +covering: 1.57 OD
  OD 450 nm, Diff (specific binding): 1.51 OD
[10]
  OD 450 nm, +covering: 2.81 OD
  OD 450 nm, Diff (specific binding): 2.65 OD
[11]
  Ratio mVH-VL/huVH-VL: 5.2
[12]
  OD 450 nm, +covering: 0.946 OD
  OD 450 nm, Diff (specific binding): 0.887 OD

B3: huVH-VL, humanized antibody huLFB112 expressed as scFv on phage (scFv, part only; not given: scFv linker and phage partner, V domains shown, not shown: another chain or arm of the molecule; large carriers; small tags and cut ends)
VH: QVQLVQSGAEVKKPGASVKVSCKASGYTFTSYHIHWVRQAPGQRLEWMGWIYPGDDSTKYSQKFQGRVTITRDTSASTAYMELSSLRSEDTAVYYCTRGDRFAYWGQGTLVTVSS
VL: DIQMTQSPSTLSASVGDRVTITCRASSSVRYIAWYQQKPGKAPKLLIYSTSSLESGVPSRFSGSGSGTEFTLTISSLQPDDFATYYCLQWSSYPWTFGGGTKVEIK
[4]
  OD 450 nm, +covering: 0.689 OD
  OD 450 nm, Diff (specific binding): 0.593 OD
[5]
  OD 450 nm, +covering: 0.135 OD
  OD 450 nm, Diff (specific binding): 0.086 OD
[9]
  OD 450 nm, +covering: 0.395 OD
  OD 450 nm, Diff (specific binding): 0.323 OD
[10]
  OD 450 nm, +covering: 1.25 OD
  OD 450 nm, Diff (specific binding): 1.1 OD
[12]
  OD 450 nm, +covering: 0.226 OD
  OD 450 nm, Diff (specific binding): 0.17 OD
